The target of assay [1] is T1, human collagen type I (h Col I) (Homo sapiens, UniProt P02452+P08123).
T1 construct: purchased Sigma C5483-1MG
Briefly: ELISA specificity vs human collagen type I. The assay is classed as binding. Here is the method: High binding plates (Greiner, 781061) were immobilized with 2.5 μg/ml recombinant human collagen type II (h Col II, Chondrex, CHX-20051), rabbit collagen type II (rbCol II, prepared from rabbit eyes), porcine collagen type II (p Col II, prepared from porcine eyes), human collagen type I, (h Col I, Sigma, C5483-1MG), human collagen type V (h Col V, Abcam, ab7537), human collagen type III (h Col Ill, Abcam, ab7535) and 67B89 (domain of fibronectin, produced in E. coli) respectively over night at 4° C. ELISA-plates were washed 3 times with PBST (PBS+ 0.1% Tween) and blocked with 3% BSA/0.5% Tween/PBS 2 h at RT. After washing with PBST, dilution series of 1.1 μM to 7×10^−4 nM of dimers (CID 211999, CID 212000), dilution series of 100 nM to 7×10^−6 nM of tetramers (CID 212001 and CID 212704) and dilution series of 10 μM to 2 nM of dimer (CID 212705) were incubated on ELISA-plates 1 h at rt. Plates were washed with PBST and incubated with biotinylated anti-StrepTag-ab (Antikörper-online, ABIN1573895) with a dilution of 1:10.000 for 1 h at rt. The binding was visualized with a-rabbit-IgG-HRP (Sigma, A9169) with a dilution of 1:10.000 and as substrate TMB Plus von KEM EN TEC Diagnostic, Kat-Nr. 4395.
Background: In an ELISA, binding on a coated surface is turned into a signal by an enzyme label.

The subject of another assay is pig eye sections. Put plainly: Immunohistochemistry staining on pig eye sections. Conditions: formalin-fixed paraffin-embedded pig eyes; 5 μM or 500 nM protein, 45 min. Here is the method: Sections of formalin-fixed paraffin-embedded pig eyes were deparaffinated with xylol and rehydrated with a descending concentration series of ethanol. For antigen retrieval slices were incubated in TE-buffer, pH 9.0 for 5 min. at 110° C. After blocking of endogenous peroxidases with peroxidase blocking solution (Novolink Polymer™ Detection System, Leica, RE7140-K) slices were incubated with 5 μM or 500 nM of CID 211999 (dimer), CID 212000 (dimer), CID 212001 (tetramer) for 45 min at rt. Subsequently binding of proteins was detected with rabbit-anti-StrepTag-antibody (Genscript, A00026) at a dilution of 1:500 and Novolink Polymer™ Detection System. Anti-Collagen Type II antibody (Abcam, #ab34712) at a dilution of 1:10 served as positive control. Tissue slices were incubated with antibodies for 30 min. Washing steps were performed with TBS pH 7.6. For visualization, AEC-staining (Dako, K3461) was used and after washing with water, nuclei were stained with Mayers Hamalum solution (Merck, 1.09249.0500). Results see FIG. 5.

T1 sequence (P02452 162-1218 limits assumed): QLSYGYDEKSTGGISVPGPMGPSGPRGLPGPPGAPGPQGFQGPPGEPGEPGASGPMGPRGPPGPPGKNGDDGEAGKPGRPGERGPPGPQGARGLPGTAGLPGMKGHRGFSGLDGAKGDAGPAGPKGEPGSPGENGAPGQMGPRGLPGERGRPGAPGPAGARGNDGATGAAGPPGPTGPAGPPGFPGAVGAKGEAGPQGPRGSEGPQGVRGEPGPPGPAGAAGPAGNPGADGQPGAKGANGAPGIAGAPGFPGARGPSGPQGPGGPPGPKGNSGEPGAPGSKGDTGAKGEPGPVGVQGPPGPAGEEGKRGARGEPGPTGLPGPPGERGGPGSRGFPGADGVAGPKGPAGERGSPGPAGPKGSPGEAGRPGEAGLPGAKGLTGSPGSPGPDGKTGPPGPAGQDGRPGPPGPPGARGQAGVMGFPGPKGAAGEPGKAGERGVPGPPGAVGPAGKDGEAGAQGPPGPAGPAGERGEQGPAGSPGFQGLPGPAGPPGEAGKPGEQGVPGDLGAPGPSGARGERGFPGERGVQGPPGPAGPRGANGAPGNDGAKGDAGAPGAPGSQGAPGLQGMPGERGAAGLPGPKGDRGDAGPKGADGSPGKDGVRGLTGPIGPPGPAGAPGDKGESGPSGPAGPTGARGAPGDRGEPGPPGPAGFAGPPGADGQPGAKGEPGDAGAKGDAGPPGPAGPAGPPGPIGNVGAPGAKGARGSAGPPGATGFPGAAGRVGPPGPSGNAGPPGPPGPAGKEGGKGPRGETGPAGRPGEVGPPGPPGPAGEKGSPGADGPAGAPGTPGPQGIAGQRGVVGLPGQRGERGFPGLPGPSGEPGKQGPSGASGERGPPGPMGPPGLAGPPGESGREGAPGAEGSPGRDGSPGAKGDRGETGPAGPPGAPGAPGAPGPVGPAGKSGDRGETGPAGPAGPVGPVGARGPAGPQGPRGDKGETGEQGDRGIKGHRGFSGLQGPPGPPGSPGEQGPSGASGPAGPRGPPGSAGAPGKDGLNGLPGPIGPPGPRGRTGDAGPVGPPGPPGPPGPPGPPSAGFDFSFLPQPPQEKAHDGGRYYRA
T1 sequence (P08123 80-1119 limits assumed): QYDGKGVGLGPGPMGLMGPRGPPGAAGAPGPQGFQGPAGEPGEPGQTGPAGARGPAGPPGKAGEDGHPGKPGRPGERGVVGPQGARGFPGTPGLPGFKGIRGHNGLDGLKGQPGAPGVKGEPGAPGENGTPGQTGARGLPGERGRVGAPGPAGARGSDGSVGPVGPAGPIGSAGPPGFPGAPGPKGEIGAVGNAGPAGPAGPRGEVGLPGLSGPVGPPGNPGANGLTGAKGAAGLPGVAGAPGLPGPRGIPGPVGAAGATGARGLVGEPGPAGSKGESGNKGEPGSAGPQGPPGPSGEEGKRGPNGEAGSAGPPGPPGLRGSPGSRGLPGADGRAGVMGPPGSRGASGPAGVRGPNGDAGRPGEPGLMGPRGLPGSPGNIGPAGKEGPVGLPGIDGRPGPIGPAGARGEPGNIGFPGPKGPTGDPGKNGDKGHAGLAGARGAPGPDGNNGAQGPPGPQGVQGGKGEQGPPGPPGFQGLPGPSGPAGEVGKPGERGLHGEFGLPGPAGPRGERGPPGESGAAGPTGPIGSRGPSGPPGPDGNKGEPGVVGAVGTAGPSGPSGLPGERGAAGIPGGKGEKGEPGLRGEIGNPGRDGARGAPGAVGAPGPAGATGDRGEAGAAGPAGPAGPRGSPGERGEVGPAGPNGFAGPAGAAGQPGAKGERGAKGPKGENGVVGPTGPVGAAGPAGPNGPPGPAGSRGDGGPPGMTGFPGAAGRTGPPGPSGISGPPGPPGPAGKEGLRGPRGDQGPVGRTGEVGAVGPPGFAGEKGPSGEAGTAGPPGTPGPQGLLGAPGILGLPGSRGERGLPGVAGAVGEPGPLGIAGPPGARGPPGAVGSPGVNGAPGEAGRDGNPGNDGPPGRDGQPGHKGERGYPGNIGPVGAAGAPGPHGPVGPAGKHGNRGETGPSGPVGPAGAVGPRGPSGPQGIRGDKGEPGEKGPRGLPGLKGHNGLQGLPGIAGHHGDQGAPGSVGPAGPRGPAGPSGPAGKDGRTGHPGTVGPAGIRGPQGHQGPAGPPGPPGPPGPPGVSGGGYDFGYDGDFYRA

B1: CID 212000: dimer of SEQ ID NO: 2 (dimer with linker between the monomers) (protein)
chain: IAAKFDEAQSAADSEILHLPNLTEQQRHYFRRWLSDDPSVSTHILTQAQHLNDDQAPKGGGGSGGGGSGGGGSGGGGSIAAKFDEAQSAADSEILHLPNLTEQQRHYFRRWLSDDPSVSTHILTQAQHLNDDQAPKSAWSHPQFEK
modifications: Col2 binding protein (dimer of 211261) (CID212000)
Turning to B1, in assay [1], the “binding to type I collagen (ELISA)” value is reported as “No unspecific binding”. The “IHC staining of pig eye sections” value with pig eye sections was “staining of retina, inner limiting membrane (arrow) and vitreous body of pig eye”.

The values above are taken from US20230416345A1, “NEW TYPE II COLLAGEN BINDING PROTEINS” (Navigo Proteins GmbH, priority 2020, published 2023).
